B1: MW06 (antibody, V domains shown)
VH: EVQLLESGGGLVQPGGSLRLSCAASGFTFSSYAMNWVRQAPGKGLEWVSVISGSGGSTYYADSVRGRFTISRDNSKNTLYLQMNSLRAEDTAVYCCAKGYYYDSSGYYFREDAFDIWGQGTLVTVSS
VL: DIQMTQSPSAMSASVGDRVTITCRASQGISNYLAWFQQKPGKVPKRLIYAASSLQSGVPSRFSGSGSGTEFTLTISSLQPEDFATYYCLQHNSYPYTFGQGTKLEIK
B2: MW05 (antibody, V domains shown)
VH: EVQLVQSGAEVKKPGSSVKVSCKASGGTFSSYAISWVRQAPGQGLEWMGRIIPIFGSSNYAQKFQGRVTITADESTSTAYMELSSLRSEDTAVYYCAESPLGGGSGYSVSWFDPWGQGTLVTVSS
VL: not shown

Assays:
[1] = molecular target: SARS-CoV RBD recombinant protein (SARS-CoV; strain of construct not …, UniProt Q19QX0); assay: BLI
[2] = molecular target: SARS-CoV-2 RBD recombinant protein (SARS-CoV-2, Wuhan-Hu-1 (QHD43416.1), UniProt P0DTC2); assay: BLI

Binder | Kd [1] | Kd [2] | binding result [2]
B1 | 12.3 nM | 5.48 nM | 
B2 |  |  | binds

Source: publication PMC8317929 (mAbs, 2021)
